Data as given in PMC4605301, “hSSB1 (NABP2/ OBFC2B) is required for the repair of 8-oxo-guanine by the hOGG1-mediated base excision repair pathway” (Nucleic Acids Research, 2015).

What was measured:
hOGG1 F319A = biological target: T1, hOGG1 F319A (human, UniProt O15527 1-345, F319A); assay: pull-down; biotinylated dsDNA with an 8oxoG lesion on Dynabeads M-280 Streptavidin; 2 μg each of hSSB1 and hOGG1 F319A pre-incubated in buffer K with 75 mM KCl at 4°C, then 2 h with beads at 4°C, wash with 100 mM KCl; SDS-PAGE, Coomassie blue; settings: both partners purified
T1 construct: human 8-oxoguanine glycosylase 1 (hOGG1) with F319A, from the pGEX-hOGG1 vector; Mutant defective for 8-oxoG recognition; also called hOGG1 mutant (F319A)

GST-hOGG1 wild type = GST-hOGG1 wild type (human, UniProt O15527 1-345); assay: cell-based or functional assay
GST-hOGG1 wild type, sequence (O15527 whole entry): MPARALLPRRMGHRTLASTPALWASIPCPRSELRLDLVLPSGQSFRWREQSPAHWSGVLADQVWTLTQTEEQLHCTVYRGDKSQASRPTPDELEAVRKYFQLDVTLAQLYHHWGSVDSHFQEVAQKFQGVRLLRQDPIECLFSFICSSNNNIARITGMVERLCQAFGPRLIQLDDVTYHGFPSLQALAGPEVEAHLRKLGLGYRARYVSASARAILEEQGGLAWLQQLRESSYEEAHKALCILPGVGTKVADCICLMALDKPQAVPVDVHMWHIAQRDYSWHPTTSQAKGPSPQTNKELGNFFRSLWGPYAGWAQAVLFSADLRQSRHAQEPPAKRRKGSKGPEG

T1 sequence (O15527 whole entry F319A): as the sequence (O15527 whole entry) above, with F319A counted along it

B1: recombinant hSSB1 full length, N-terminal (His)6-tag (natural protein, human, UniProt Q9BQ15 1-211, looked up)
chain: MTTETFVKDIKPGLKNLNLIFIVLETGRVTKTKDGHEVRTCKVADKTGSINISVWDDVGNLIQPGDIIRLTKGYASVFKGCLTLYTGRGGDLQKIGEFCMVYSEVPNFSEPNPEYSTQQAPNKAVQNDSNPSASQPTTGPSAASPASENQNGNGLSAPPGPGGGPHPPHTPSHPPSTRITRSQPNHTPAGPPGPSSNPVSNGKETRRSSKR
notes: also called hSSB1 Full length (FL); purified recombinant hSSB1; source: E. coli T7 shuffle strain, purified (Superdex 200)
For B1, the binding result (hOGG1 F319A) was “binds” and the “8-oxoG incision activity of 20 nM recombinant hOGG1 on a 22 bp dsDNA with 8-oxoG opposite cytosine, with increasing concentrations of hSSB1 (37°C, 30 min)” value (GST-hOGG1 wild type) was 12 fold.
